# Data reported in patent publication US20260015426A1 (23ANDME, published 2026).
# Substitutions are numbered along the chain they refer to. Names may count otherwise.
# B1: K10/H3 Fab (VL-A51Y, VH-V51S) (Fab, V domains shown)
# VH: EVQLVESGGGLVQPGGSLRLSCAASGFTFSNYAMSWVRQAPGKGLEWVATSTEGGDYNYYLDDVKGRFTISRDNAKNSLYLQMNSLRAEDTAVYYCARDRWPYFFDYWGQGTLVTVSS
# VL: DIQMTQSPSSLSASVGDRVTITCRASENIYSNLAWYQQKPGKSPKLLVYGYKNLADGVPSRFSGSGSGTDYTLTISSLQPEDFATYYCQHFWTTPRTFGGGTKVEIK
# notes: Fab with 8xHis tag
# B2: K13/H2 Fab (VL-A51Y/W92I, VH-R96D) (Fab, V domains shown)
# VH: B1 VH with S51V, R100D
# VL: B1 VL with W92I
# notes: Fab with 8xHis tag
# B3: K17/H2 Fab (VL-A51Y/W92K, VH-R96D) (Fab, V domains shown)
# VH: B1 VH with S51V, R100D
# VL: B1 VL with W92K
# notes: Fab with 8xHis tag
# B4: K13/H3 Fab (VL-A51Y/W92I, VH-V51S) (Fab, V domains shown)
# VH: B1 VH
# VL: B1 VL with W92I
# notes: Fab with 8xHis tag
# B5: K17/H3 Fab (VL-A51Y/W92K, VH-V51S) (Fab, V domains shown)
# VH: B1 VH
# VL: B1 VL with W92K
# notes: Fab with 8xHis tag
# B6: h11C5_C59Y (C59Y variant of h11C5) (antibody, human IgG1, V domains shown)
# VH: B1 VH with S51V
# VL: B1 VL with S43A, Y51A
# notes: Human IgG1/kappa constant domains
# B7: h11C5 (humanized 11C5 mAb) (antibody, human IgG1, kappa, N297G, V domains shown)
# VH: B1 VH with S51V, Y60C
# VL: DIQMTQSPSSLSASVGDRVTITCRASENIYSNLAWYQQKPGKAPKLLVYGAKNLADGVPSRFSGSGSGTDYTLTISSLQPEDFATYYCQHFWTTPRTFGGGTKVEIKR
# notes: Human IgG1/kappa
# B8: m11C5 (recombinant murine 11C5) (antibody, mouse IgG2a, V domains shown)
# VH: EVQLVESGGGLVKPGGSLKLSCAASGFTFSNYAMSWVRQTPEKRLEWVATVTEGGDYNYCLDDVKGRFTISRDNANDNLYLQMSHLKSEDSARYYCARDRWPYFFDYWGQGTTLTVSS
# VL: DIQMTQSPASLSVSVGETVTITCRASENIYSNLAWYQQKQGRSPQLLVYGAKNLADGVPSRFSGSGSGTQYSLNINSLQSEDFGTYYCQHFWTTPRTFGGGTKLEIK
# notes: Murine IgG2a constant domains
# B9: h11C5_C59T (antibody, human IgG1, V domains shown)
# VH: B1 VH with S51V, Y60T
# VL: B1 VL with S43A, Y51A
# notes: as for B6
# B10: h11C5_C59S (antibody, human IgG1, V domains shown)
# VH: B1 VH with S51V, Y60S
# VL: B1 VL with S43A, Y51A
# notes: as for B6
# B11: h11C5_C59A (antibody, human IgG1, V domains shown)
# VH: B1 VH with S51V, Y60A
# VL: B1 VL with S43A, Y51A
# notes: as for B6
# B12: c11C5_C59A (antibody, IgG1, V domains shown)
# VH: B8 VH with C60A
# VL: B8 VL
# notes: Murine VL and VH, human CL and IgG1 CH1-CH3 domains
# B13: c11C5 (chimeric 11C5) (antibody, IgG1, V domains shown)
# VH: B8 VH
# VL: B8 VL
# notes: as for B12
# B14: m11C5_C59T (antibody, mouse IgG2a, V domains shown)
# VH: B8 VH with C60T
# VL: B8 VL
# notes: Murine IgG2a constant domains
# B15: m11C5_C59A (antibody, mouse IgG2a, V domains shown)
# VH: B8 VH with C60A
# VL: B8 VL
# notes: Murine IgG2a constant domains
# B16: m11C5_C59V (antibody, mouse IgG2a, V domains shown)
# VH: B8 VH with C60V
# VL: B8 VL
# notes: Murine IgG2a constant domains
# B17: m11C5_C59Y (antibody, mouse IgG2a, V domains shown)
# VH: B8 VH with C60Y
# VL: B8 VL
# notes: Murine IgG2a constant domains
# B18: m11C5_C59S (antibody, mouse IgG2a, V domains shown)
# VH: B8 VH with C60S
# VL: B8 VL
# notes: Murine IgG2a constant domains
# Molecular target: T1, human IL1RAP (hu-IL1RAP) on human cells (human, UniProt Q9NPH3 21-570)
# T1 sequence: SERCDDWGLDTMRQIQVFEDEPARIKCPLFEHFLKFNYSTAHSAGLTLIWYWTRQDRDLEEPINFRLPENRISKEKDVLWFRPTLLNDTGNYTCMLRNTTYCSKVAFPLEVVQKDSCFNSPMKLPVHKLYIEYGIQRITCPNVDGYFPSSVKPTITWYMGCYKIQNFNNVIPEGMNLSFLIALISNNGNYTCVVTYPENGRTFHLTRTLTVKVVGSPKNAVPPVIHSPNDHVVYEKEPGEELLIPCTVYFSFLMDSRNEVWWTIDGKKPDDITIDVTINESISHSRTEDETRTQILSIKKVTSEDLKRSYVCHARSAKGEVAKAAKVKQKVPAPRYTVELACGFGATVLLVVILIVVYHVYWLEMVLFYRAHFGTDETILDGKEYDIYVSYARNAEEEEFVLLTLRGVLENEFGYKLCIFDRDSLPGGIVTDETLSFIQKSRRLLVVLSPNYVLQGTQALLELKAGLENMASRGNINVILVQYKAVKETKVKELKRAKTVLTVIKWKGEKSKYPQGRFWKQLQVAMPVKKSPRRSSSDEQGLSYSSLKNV
# Assay: cell-based or functional assay
Binder,"HEK-Blue, IL-1β, % inhibition at 100 nM (Fab) [%]","HEK-Blue, IL-1β, IC50 (Fab) [pM]","HEK-Blue, IL-33, % inhibition at 100 nM (Fab) [%]","HEK-Blue, IL-33, IC50 (Fab) [pM]","HEK-Blue, IL-36α, % inhibition at 100 nM (Fab) [%]","HEK-Blue, IL-36α, IC50 (Fab) [pM]"
B1,99,642,98,2430,100,582
B2,100,539,98,2390,99,548
B3,100,1860,97,4710,100,930
B4,100,898,99,2070,98,462
B5,100,1320,98,3530,100,800

# Molecular target: T1, human IL1RAP (hu-IL1RAP) on human cells
# Assay: cell-based or functional assay
# Remark: another data set of the same source
Binder,"HEK-Blue, IL-1β, IC50 [pM]","HEK-Blue, IL-33, IC50 [pM]","HEK-Blue, IL-33, % inhibition at 100 nM [%]"
B6,1030,3750,
B7,3120,24000,80
B8,705,2250,

# Molecular target: T2, hu-M-IL1RAP construct, positions S21-T367 (extracellular domain of the membrane form of human IL1RAP) (human, UniProt Q9NPH3 21-367)
# T2 construct: Biotinylated when captured on the Biacore chip
# T2 sequence: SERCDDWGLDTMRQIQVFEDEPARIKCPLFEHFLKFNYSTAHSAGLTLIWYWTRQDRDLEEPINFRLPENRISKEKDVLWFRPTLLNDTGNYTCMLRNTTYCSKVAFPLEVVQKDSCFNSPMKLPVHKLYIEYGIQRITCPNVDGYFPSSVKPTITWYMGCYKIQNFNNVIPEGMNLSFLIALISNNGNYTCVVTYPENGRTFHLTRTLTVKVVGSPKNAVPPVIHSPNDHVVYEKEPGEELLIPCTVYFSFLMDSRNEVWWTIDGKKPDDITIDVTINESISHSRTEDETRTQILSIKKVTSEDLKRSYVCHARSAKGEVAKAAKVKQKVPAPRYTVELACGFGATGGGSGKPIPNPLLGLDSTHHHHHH
# Assay: BLI (OCTET), mAb captured, 25 C
# Method: All samples were placed in black 96-well plates and the experiment was performed at 25° C. […] The biosensors were equilibrated in experimental buffer at 25° C. for ten minutes prior to starting the experiment.
# The resulting BLI signal from analyte association and dissociation from the immobilized antibody was analyzed using the Octet Data Analysis software (Pall ForteBio). First, a reference subtraction was performed on all recorded traces using the reference well (biosensor that underwent the same steps as experimental wells but no analyte for the Association step), then all the traces were aligned to the beginning of the Association step.
row,Binder,Kd [pM]
1,B9,3260
2,B10,1080
3,B6,1340
4,B7,1060
5,B11,2060
6,B12,756
7,B8,370
8,B13,699
9,B14,1380
10,B15,513
11,B16,604
12,B17,524
13,B18,598

# Molecular target: T2, hu-M-IL1RAP construct, positions …
# Assay: SPR, Fab analyte, 37 C
# Method: Surface plasmon resonance (SPR) analysis was used to determine binding affinity for hu-M-IL1RAP of the purified Fabs containing the selected single, double, and triple mutations in either the VL or VH regions using a BIACORE™ 8K instrument. […] For kinetics measurements, 5 nM biotinylated hu-M-IL1RAP was captured at 10 μL/min to achieve ˜50 response units in the second flow cell (FC2). FC1 was kept as a reference. […] The sensorgrams were recorded and subjected to reference and buffer subtraction before data analysis with the BIACORE® 8K Evaluation Software (version 1.1.1.7442). Association rates (kₒₙ) and dissociation rates (koff) were calculated using a simple one-to-one Langmuir binding model. The equilibrium dissociation constant (KD) was calculated as the ratio of koff/kₒₙ.
Binder,Kd [pM],koff [s⁻¹],kon [M⁻¹ s⁻¹]
B1,24.2,0.000123,5.06e+06
B2,22.7,0.000115,5.08e+06
B3,29.3,0.000121,4.15e+06
B4,21.1,0.000109,5.17e+06
B5,31.5,0.00012,3.81e+06
